Experimental data taken from paper PMC7521651, “Intracerebroventricular enzyme replacement therapy with β-galactosidase reverses brain pathologies due to GM1 gangliosidosis in mice” (The Journal of Biological Chemistry, 2019).

How the values were obtained:
[1] = molecular target: the molecule itself; assay: AUC; sedimentation equilibrium, 12,000 and 14,000 rpm, 25 °C, 20 mM sodium phosphate pH 7.4, 150 mM NaCl, 3 mM KCl; monomer-dimer equilibrium model (SEDPHAT); dimer to monomers
[2] = molecular target: the molecule itself; assay: AUC; sedimentation equilibrium, 12,000 and 14,000 rpm, 20 mM sodium acetate pH 5, 150 mM NaCl, 3 mM KCl; dimer to monomers, limit calculated from detection of 10% monomer

B1: recombinant human β-gal (rhβ-gal) (enzyme)
chain: QRMFEIDYSRDSFLKDGQPFRYISGSIHYSRVPRFYWKDRLLKMKMAGLNAIQTYVPWNFHEPWPGQYQFSEDHDVEYFLRLAHELGLLVILRPGPYICAEWEMGGLPAWLLEKESILLRSSDPDYLAAVDKWLGVLLPKMKPLLYQNGGPVITVQVENEYGSYFACDFDYLRFLQKRFRHHLGDDVVLFTTDGAHKTFLKCGALQGLYTTVDFGTGSNITDAFLSQRKCEPKGPLINSEFYTGWLDHWGQPHSTIKTEAVASSLYDILARGASVNLYMFIGGTNFAYWNGANSPYAAQPTSYDYDAPLSEAGDLTEKYFALRNIIQKFEKVPEGPIPPSTPKFAYGKVTLEKLKTVGAALDILCPSGPIKSLYPLTFIQVKQHYGFVLYRTTLPQDCSNPAPLSSPLNGVHDRAYVAVDGIPQGVLERNNVITLNITGKAGATLDLLVENMGRVNYGAYINDFKGLVSNLTLSSNILTDWTIFPLDTEDAVRSHLGGWGHRDSGHHDEAWAHNSSNYTLPAFYMGNFSIPSGIPDLPQDTFIQFPGWTKGQVWINGFNLGRYWPARGPQLTLFVPQHILMTSAPNTITVLELEWAPCSSDDPELCAVTFVDRPVIGSSVTYDHPSKPVEKRLMPPPPQKNKDSWLDHV
modifications: N-linked glycans; about 9% of the total glycan composition is bisphosphorylated oligomannose (BPM7)
notes: human lysosomal β-galactosidase (GLB1), secreted from CHO cells as the precursor, nonlysosomal enzyme (not the lysosomally processed mature form); No tag is mentioned; PDB 3THC is another preparation, treated by limited proteolysis, with residues 648-677 not determined; also called β-galactosidase; lysosomal β-gal
Kd [1]: 243 nM | Kd [2]: ≤ 2 nM | stoichiometry N [2]: 2
